One substance from publication PMC3332082 can be followed below.

The target in assay [1] is murine cdb3-GFP, deletion of residues 19-23 (mouse) (UniProt P04919). Description: FRET or BRET.
The target of assay [2] is murine cdb3-GFP, substitution of residues 12-23 (all 7 acidic residues to amides) (mouse) (UniProt P04919). The assay can be described thus: FRET or BRET.
Assay [3] addresses murine cdb3-GFP, substitution of residues 19-23 (acidic residues to amides) (mouse) (UniProt P04919). Description: FRET or BRET. Background: Bioluminescence resonance energy transfer reports proximity on the nanometre scale.
Assay [4] concerns the target murine cdb3-GFP, substitution of residues 25-31 (negative residues introduced) (mouse) (UniProt P04919). The assay can be described thus: other fluorescence titration.

For “murine hemoglobin (from erythrocytes of C57BL/6J mice) (from UniProt P01942 1-142; P02088 1-147) (complex)”, the reduction in deoxyHb binding against wild type in assay [1] and in assay [3] was 60% in each case. For the same substance, the affinity for deoxyHb, percent of normal in assay [2] was determined as 15%. Also, the dissociation constant Kd (usually the free concentration of one partner at which half of the binding sites on the other are occupied at equilibrium, for simple one-to-one binding) in assay [4] was found to be 390 nM.
